IntAct's records for PubMed 25910212
Values belong to the substance of their own block, whether it stands above or below them.

What was measured:
[1] = molecular target: trip6_human TRIP6 (UniProt Q15654)
[2] = molecular target: lzts2_human LZTS2 (UniProt Q9BRK4)
[3] = molecular target: mdfi_human MDFI (UniProt Q99750)
[4] = molecular target: kra32_human KRTAP3-2 (UniProt Q9BYR7)
[5] = molecular target: UBQLN1, Q9UMX0-2
[6] = molecular target: gsto2_human GSTO2 (UniProt Q9H4Y5)
[7] = molecular target: TMEM239, Q8WW34-2
[8] = molecular target: ldaf1_human LDAF1 (UniProt Q96B96)
[9] = molecular target: reep6_human REEP6 (UniProt Q96HR9)
[10] = molecular target: shlb1_human SH3GLB1 (UniProt Q9Y371)
[11] = molecular target: praf1_human RABAC1 (UniProt Q9UI14)
[12] = molecular target: dtx2_human DTX2 (UniProt Q86UW9)
[13] = molecular target: tfp11_human TFIP11 (UniProt Q9UBB9)
[14] = molecular target: AGTRAP, Q6RW13-2
[15] = molecular target: CMTM5, Q96DZ9-2
[16] = molecular target: pnma1_human PNMA1 (UniProt Q8ND90)
[17] = molecular target: cap2_human CAP2 (UniProt P40123)
[18] = molecular target: cof2_human CFL2 (UniProt Q9Y281)
[19] = molecular target: cap2_human CAP2 (UniProt P40123); remark: listed apart in the source
[20] = molecular target: T1, SYNE4, Q8N205-2
T1 sequence: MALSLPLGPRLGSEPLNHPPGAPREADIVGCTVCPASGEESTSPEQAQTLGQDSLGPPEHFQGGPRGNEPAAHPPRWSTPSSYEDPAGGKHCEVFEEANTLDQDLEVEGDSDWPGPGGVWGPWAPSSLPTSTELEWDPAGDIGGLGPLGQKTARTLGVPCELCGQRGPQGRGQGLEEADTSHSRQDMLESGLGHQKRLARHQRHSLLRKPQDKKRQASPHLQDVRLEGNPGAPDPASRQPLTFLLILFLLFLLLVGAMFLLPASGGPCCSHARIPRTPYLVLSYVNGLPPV

[21] = molecular target: T2, tmm79_human TMEM79 (UniProt Q9BSE2)
T2 sequence: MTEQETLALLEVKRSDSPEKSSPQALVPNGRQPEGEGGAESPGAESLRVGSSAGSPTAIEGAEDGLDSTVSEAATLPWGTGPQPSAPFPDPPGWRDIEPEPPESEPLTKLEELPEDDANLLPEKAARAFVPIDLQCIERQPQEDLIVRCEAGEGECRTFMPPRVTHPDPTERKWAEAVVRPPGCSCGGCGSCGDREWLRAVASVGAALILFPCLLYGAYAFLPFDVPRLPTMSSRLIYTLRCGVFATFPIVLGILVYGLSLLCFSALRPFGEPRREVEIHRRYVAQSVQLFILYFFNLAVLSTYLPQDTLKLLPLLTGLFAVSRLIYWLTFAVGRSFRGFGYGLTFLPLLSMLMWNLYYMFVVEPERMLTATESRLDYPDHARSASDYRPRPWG

[22] = molecular target: T3, smim3_human SMIM3 (UniProt Q9BZL3)
T3 sequence: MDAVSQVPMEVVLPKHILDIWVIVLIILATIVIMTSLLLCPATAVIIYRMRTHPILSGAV

[23] = molecular target: T3, smim3_human SMIM3; remark: listed apart in the source

Sequence of shlb1_human SH3GLB1 (Q9Y371 whole entry): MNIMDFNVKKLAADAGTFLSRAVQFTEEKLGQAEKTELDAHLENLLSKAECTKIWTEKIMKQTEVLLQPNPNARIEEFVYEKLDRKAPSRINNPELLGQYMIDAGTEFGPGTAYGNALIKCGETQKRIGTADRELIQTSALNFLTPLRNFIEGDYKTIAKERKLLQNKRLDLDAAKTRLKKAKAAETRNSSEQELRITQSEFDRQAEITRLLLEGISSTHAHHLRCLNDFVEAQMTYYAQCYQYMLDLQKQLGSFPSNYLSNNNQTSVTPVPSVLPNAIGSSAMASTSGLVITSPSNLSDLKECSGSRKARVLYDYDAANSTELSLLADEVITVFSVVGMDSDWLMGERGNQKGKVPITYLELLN
Sequence of AGTRAP, Q6RW13-2 (Q6RW13 other isoform, or with tags, fused parts or gaps): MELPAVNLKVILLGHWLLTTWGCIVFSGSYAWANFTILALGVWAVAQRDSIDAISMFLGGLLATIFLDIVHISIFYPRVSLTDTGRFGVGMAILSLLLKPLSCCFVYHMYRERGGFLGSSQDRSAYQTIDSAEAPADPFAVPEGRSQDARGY
Sequence of TMEM239, Q8WW34-2 (Q8WW34 44-195): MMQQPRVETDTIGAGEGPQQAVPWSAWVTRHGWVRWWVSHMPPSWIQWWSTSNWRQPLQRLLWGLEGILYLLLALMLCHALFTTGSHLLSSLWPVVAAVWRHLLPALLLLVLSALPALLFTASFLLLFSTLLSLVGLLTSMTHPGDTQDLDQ
Sequence of Erythroid transcription factor (Homo sapiens), P15976-2 V205M (P15976 other isoform, or with tags, fused parts or gaps V205M): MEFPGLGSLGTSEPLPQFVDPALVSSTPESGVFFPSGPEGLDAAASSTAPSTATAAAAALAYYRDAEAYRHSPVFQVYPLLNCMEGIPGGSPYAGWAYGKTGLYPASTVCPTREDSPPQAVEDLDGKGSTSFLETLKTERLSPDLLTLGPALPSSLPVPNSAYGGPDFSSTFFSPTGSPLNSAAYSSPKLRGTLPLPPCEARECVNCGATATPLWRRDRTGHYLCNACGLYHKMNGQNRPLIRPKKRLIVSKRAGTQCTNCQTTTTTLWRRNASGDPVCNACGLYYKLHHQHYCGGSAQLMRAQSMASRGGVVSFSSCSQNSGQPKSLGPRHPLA
Sequence of Erythroid transcription factor (Homo sapiens), P15976-2 G208R (P15976 other isoform, or with tags, fused parts or gaps G208R): as the sequence (P15976 other isoform, or with tags, fused parts or gaps V205M) above
Sequence of Erythroid transcription factor (Homo sapiens), P15976-2 D218G (P15976 other isoform, or with tags, fused parts or gaps D218G): as the sequence (P15976 other isoform, or with tags, fused parts or gaps V205M) above
Sequence of mdfi_human MDFI (Q99750 whole entry): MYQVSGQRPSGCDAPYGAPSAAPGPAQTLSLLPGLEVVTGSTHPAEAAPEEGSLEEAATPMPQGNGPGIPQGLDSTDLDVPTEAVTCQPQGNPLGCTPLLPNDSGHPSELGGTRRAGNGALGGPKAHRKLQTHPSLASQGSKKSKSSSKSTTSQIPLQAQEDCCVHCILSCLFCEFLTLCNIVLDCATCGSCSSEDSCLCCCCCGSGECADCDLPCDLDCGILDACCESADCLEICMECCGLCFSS
Sequence of ldaf1_human LDAF1 (Q96B96 whole entry): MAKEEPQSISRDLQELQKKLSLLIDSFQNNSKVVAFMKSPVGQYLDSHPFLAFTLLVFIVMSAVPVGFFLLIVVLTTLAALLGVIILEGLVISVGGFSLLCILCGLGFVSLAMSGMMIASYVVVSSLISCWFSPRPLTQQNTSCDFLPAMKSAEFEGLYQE
Sequence of UBQLN1, Q9UMX0-2 (Q9UMX0 other isoform, or with tags, fused parts or gaps): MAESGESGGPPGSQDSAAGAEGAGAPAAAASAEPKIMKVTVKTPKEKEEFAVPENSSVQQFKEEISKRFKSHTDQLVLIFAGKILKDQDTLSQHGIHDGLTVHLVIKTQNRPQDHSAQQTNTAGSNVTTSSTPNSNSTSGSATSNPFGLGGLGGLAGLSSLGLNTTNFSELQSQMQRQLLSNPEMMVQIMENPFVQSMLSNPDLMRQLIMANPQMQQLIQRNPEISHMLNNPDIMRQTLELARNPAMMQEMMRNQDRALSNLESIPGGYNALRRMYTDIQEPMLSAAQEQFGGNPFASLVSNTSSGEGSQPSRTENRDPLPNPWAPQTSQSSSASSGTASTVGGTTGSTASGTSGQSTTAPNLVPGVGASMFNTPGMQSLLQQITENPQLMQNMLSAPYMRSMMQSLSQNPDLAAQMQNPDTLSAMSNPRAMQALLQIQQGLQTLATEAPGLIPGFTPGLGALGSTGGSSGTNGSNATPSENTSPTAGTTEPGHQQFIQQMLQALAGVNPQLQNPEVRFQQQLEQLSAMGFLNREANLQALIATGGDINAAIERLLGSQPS
Sequence of tfp11_human TFIP11 (Q9UBB9 whole entry): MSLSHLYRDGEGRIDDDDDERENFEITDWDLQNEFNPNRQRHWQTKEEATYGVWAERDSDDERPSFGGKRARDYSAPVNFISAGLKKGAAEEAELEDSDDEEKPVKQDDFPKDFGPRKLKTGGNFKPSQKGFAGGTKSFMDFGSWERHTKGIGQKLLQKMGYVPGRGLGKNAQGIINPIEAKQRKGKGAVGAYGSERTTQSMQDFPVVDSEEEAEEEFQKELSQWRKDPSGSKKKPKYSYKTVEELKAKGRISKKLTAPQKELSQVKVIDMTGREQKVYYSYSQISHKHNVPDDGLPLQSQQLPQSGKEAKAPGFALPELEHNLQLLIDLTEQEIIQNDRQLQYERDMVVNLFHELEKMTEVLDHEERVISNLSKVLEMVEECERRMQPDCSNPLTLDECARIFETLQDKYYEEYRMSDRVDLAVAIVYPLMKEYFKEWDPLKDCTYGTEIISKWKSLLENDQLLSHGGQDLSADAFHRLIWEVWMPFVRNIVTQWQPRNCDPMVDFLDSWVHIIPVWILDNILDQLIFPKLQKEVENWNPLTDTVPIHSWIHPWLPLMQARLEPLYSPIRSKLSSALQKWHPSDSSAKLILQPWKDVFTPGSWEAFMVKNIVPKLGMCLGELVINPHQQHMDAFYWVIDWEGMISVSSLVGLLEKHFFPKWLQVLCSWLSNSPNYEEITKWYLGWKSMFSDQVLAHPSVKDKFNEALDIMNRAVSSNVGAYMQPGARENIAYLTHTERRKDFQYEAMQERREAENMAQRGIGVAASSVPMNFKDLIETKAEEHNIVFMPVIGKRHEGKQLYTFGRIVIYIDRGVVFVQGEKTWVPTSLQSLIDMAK
Sequence of CMTM5, Q96DZ9-2 (Q96DZ9 other isoform, or with tags, fused parts or gaps): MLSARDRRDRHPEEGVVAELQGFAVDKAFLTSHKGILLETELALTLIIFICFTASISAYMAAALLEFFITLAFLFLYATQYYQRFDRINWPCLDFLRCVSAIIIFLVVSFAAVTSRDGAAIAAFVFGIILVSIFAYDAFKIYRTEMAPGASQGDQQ
Sequence of trip6_human TRIP6 (Q15654 whole entry): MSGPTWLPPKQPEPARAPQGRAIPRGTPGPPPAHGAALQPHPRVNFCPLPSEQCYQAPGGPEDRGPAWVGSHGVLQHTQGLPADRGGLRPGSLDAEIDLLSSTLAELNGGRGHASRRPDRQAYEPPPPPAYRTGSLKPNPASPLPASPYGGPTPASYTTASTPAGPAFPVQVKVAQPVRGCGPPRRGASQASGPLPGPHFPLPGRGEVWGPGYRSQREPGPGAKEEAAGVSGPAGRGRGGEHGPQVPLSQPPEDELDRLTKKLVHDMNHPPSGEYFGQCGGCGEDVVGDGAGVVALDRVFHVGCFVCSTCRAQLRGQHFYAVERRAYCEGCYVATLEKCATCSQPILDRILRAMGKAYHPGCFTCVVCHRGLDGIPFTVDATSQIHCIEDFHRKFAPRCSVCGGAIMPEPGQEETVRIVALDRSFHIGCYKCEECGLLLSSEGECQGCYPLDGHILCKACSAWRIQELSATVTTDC
Sequence of reep6_human REEP6 (Q96HR9 whole entry): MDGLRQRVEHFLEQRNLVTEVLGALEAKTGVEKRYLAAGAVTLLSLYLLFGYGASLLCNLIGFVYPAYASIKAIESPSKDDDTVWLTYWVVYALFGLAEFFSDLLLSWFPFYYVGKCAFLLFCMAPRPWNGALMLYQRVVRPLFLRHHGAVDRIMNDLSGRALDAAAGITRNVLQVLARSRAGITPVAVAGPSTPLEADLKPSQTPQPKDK
Sequence of kra32_human KRTAP3-2 (Q9BYR7 whole entry): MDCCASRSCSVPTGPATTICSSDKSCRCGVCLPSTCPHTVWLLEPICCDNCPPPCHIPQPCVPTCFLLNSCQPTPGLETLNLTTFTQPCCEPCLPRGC
Sequence of pnma1_human PNMA1 (Q8ND90 whole entry): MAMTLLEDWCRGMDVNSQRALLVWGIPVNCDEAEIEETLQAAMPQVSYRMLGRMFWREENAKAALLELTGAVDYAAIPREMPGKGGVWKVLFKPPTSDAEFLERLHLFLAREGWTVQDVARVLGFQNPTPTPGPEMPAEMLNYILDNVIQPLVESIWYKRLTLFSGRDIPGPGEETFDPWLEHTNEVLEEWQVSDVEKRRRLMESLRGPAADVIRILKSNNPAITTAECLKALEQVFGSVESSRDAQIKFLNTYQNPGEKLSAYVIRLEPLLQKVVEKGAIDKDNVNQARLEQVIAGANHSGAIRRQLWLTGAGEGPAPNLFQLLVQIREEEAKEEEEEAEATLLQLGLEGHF

Substance: Erythroid transcription factor (Homo sapiens), P15976-2 D218G
effect of a mutation on the interaction [1]: with no effect
effect of a mutation on the interaction [2]: with no effect
effect of a mutation on the interaction [3]: with no effect
effect of a mutation on the interaction [4]: with no effect

Substance: Erythroid transcription factor (Homo sapiens), P15976-2 G208R
effect of a mutation on the interaction [1]: with no effect
effect of a mutation on the interaction [2]: with no effect
effect of a mutation on the interaction [3]: with no effect
effect of a mutation on the interaction [4]: with no effect

Substance: Cytosolic 5'-nucleotidase 3A (Homo sapiens) (from UniProt Q9H0P0) F36L
effect of a mutation on the interaction [5]: with no effect

Substance: Transcription factor AP-2-alpha (Homo sapiens), P05549-5 R249G
effect of a mutation on the interaction [6]: with no effect

Substance: Atypical kinase COQ8A, mitochondrial (Homo sapiens), Q8NI60 G272V
effect of a mutation on the interaction [7]: disrupting interaction strength
effect of a mutation on the interaction [8]: disrupting interaction strength
effect of a mutation on the interaction [9]: disrupting interaction strength
effect of a mutation on the interaction [10]: with no effect
effect of a mutation on the interaction [11]: disrupting interaction strength
effect of a mutation on the interaction [12]: with no effect
effect of a mutation on the interaction [13]: disrupting interaction strength
effect of a mutation on the interaction [14]: with no effect
effect of a mutation on the interaction [15]: with no effect

Substance: Erythroid transcription factor (Homo sapiens), P15976-2 V205M
effect of a mutation on the interaction [1]: with no effect
effect of a mutation on the interaction [2]: disrupting interaction strength
effect of a mutation on the interaction [3]: with no effect
effect of a mutation on the interaction [4]: with no effect

Substance: Cytosolic 5'-nucleotidase 3A (Homo sapiens) (from UniProt Q9H0P0) D137V
effect of a mutation on the interaction [5]: with no effect

Substance: Actin, cytoplasmic 2 (Homo sapiens) (from UniProt P63261) P264L
effect of a mutation on the interaction [17]: causing an interaction
effect of a mutation on the interaction [18]: disrupting interaction strength
effect of a mutation on the interaction [19]: with no effect

Substance: Transcription factor AP-2-alpha (Homo sapiens), P05549-5 G256E
effect of a mutation on the interaction [6]: with no effect

Substance: Surfactant protein C (Homo sapiens) (from UniProt P11686) H64P
effect of a mutation on the interaction [20]: with no effect
effect of a mutation on the interaction [21]: with no effect
effect of a mutation on the interaction [22]: causing an interaction
effect of a mutation on the interaction [23]: with no effect

Substance: Surfactant protein C (Homo sapiens) (from UniProt P11686) P30L
effect of a mutation on the interaction [20]: with no effect
effect of a mutation on the interaction [21]: with no effect
effect of a mutation on the interaction [22]: causing an interaction
effect of a mutation on the interaction [23]: with no effect

Substance: Aprataxin (Homo sapiens), Q7Z2E3-7 A198V
effect of a mutation on the interaction [16]: with no effect

Substance: Actin, cytoplasmic 2 (Homo sapiens) (from UniProt P63261) T89I
effect of a mutation on the interaction [17]: causing an interaction
effect of a mutation on the interaction [18]: with no effect
effect of a mutation on the interaction [19]: with no effect

Other lines, results leading:

effect of a mutation on the interaction [5]: disrupting interaction strength
Substance: Cytosolic 5'-nucleotidase 3A (Homo sapiens) (from UniProt Q9H0P0) G207R

effect of a mutation on the interaction [16]: disrupting interaction strength
Substance: Aprataxin (Homo sapiens), Q7Z2E3-7 V263G

effect of a mutation on the interaction [7]: with no effect
effect of a mutation on the interaction [8]: with no effect
effect of a mutation on the interaction [9]: with no effect
effect of a mutation on the interaction [10]: with no effect
effect of a mutation on the interaction [11]: with no effect
effect of a mutation on the interaction [12]: with no effect
effect of a mutation on the interaction [13]: with no effect
effect of a mutation on the interaction [14]: with no effect
effect of a mutation on the interaction [15]: with no effect
Substance: Atypical kinase COQ8A, mitochondrial (Homo sapiens), Q8NI60 H80Y

effect of a mutation on the interaction [7]: disrupting interaction strength
effect of a mutation on the interaction [8]: disrupting interaction strength
effect of a mutation on the interaction [9]: disrupting interaction strength
effect of a mutation on the interaction [10]: disrupting interaction strength
effect of a mutation on the interaction [11]: disrupting interaction strength
effect of a mutation on the interaction [12]: disrupting interaction strength
effect of a mutation on the interaction [13]: disrupting interaction strength
effect of a mutation on the interaction [14]: disrupting interaction strength
effect of a mutation on the interaction [15]: disrupting interaction strength
Substance: Atypical kinase COQ8A, mitochondrial (Homo sapiens), Q8NI60 R213W

effect of a mutation on the interaction [16]: disrupting interaction strength
Substance: Aprataxin (Homo sapiens), Q7Z2E3-7 H228R

effect of a mutation on the interaction [6]: with no effect
Substance: Transcription factor AP-2-alpha (Homo sapiens), P05549-5 R248W

effect of a mutation on the interaction [5]: with no effect
Substance: Cytosolic 5'-nucleotidase 3A (Homo sapiens) (from UniProt Q9H0P0) G280R

effect of a mutation on the interaction [5]: with no effect
Substance: Cytosolic 5'-nucleotidase 3A (Homo sapiens) (from UniProt Q9H0P0) C113R

effect of a mutation on the interaction [7]: with no effect
effect of a mutation on the interaction [8]: with no effect
effect of a mutation on the interaction [9]: with no effect
effect of a mutation on the interaction [10]: with no effect
effect of a mutation on the interaction [11]: with no effect
effect of a mutation on the interaction [12]: with no effect
effect of a mutation on the interaction [13]: with no effect
effect of a mutation on the interaction [14]: with no effect
effect of a mutation on the interaction [15]: with no effect
Substance: Atypical kinase COQ8A, mitochondrial (Homo sapiens), Q8NI60 H85Q

effect of a mutation on the interaction [18]: disrupting interaction strength
effect of a mutation on the interaction [19]: disrupting interaction strength
Substance: Actin, cytoplasmic 2 (Homo sapiens) (from UniProt P63261) I122V

effect of a mutation on the interaction [7]: with no effect
effect of a mutation on the interaction [8]: with no effect
effect of a mutation on the interaction [9]: with no effect
effect of a mutation on the interaction [10]: with no effect
effect of a mutation on the interaction [11]: with no effect
effect of a mutation on the interaction [12]: with no effect
effect of a mutation on the interaction [13]: with no effect
effect of a mutation on the interaction [14]: with no effect
effect of a mutation on the interaction [15]: with no effect
Substance: Atypical kinase COQ8A, mitochondrial (Homo sapiens), Q8NI60 Y514C

effect of a mutation on the interaction [7]: disrupting interaction strength
effect of a mutation on the interaction [8]: disrupting interaction strength
effect of a mutation on the interaction [9]: disrupting interaction strength
effect of a mutation on the interaction [10]: disrupting interaction strength
effect of a mutation on the interaction [11]: disrupting interaction strength
effect of a mutation on the interaction [12]: disrupting interaction strength
effect of a mutation on the interaction [13]: disrupting interaction strength
effect of a mutation on the interaction [14]: with no effect
effect of a mutation on the interaction [15]: with no effect
Substance: Atypical kinase COQ8A, mitochondrial (Homo sapiens), Q8NI60 E551K
